Assays:
[1] = test system: chorio-allantoic membrane of the chick embryo; experiment: Chorio-allantoic membrane assay; assay type: in vivo; settings: 25 ng/ml or 50 ng/ml, 48 h
Protocol: D: Yolk sac membrane assays were performed in the presence of 25 ng/ml or 50 ng/ml I5-13-sCD146 and I10-sCD146 for 48 h and compared to control. Representative pictures of 4 different experiments are given.
The chorio-allantoic membrane of the chick embryo assay (CAM) was performed using a previously described protocol (Beckers et al., 1997).
The chorio-allantoic membrane of the chick embryo assay (CAM) was surgically removed and fixed in 10% buffered formaldehyde for 10 hours, dehydrated in graded alcohol, cleared in xylene and embedded in paraffin. 5 μm thick sections were cut in a plane parallel to the surface of the CAM and stained by hematoxylin-eosin which was observed under a light photomicroscope.

[2] = test system: mouse ischemic hind limb model; experiment: Mouse hind limb ischemia model; assay type: in vivo; settings: for blood flow (laser-Doppler): 2 μg locally twice a week for 28 days; for blood flow (laser-Doppler) / vascularisation of muscle (isolectin B4 labelling): compared to PBS; for vascularisation of muscle (isolectin B4 labelling): 28 days after surgery; for number of vessels in the legs (angiography pictures) / vessel density in calf, thigh and whole leg (angiography quantification): D28, compared to PBS
Protocol: A: Ischemic mice were treated with PBS or 2 μg of rh-sCD146/rh-I10-sCD146/rh-I5-13-sCD146 or VEGF. Blood perfusion rate was monitored by laser-Doppler. Results are mean values of 6 different animals in each group and expressed as % of the control leg. *, **, ***: P<0.05, P<0.01, P<0.001, I10-sCD146 vs. PBS; $$, $$$: P<0.01, P<0.001, I5-13-sCD146 vs. PBS; ##, ###: P<0.01, P<0.001, shed sCD146 vs. PBS; £: P<0.05, VEGF vs. PBS.
B: Blood vessels examination in hind limb muscle sections from control (PBS) and shed rh-sCD146/rh-I10-sCD146/rh-I5-13-sCD146 treated animals 28 days after surgery. Vessels are labelled with isolectin B4.**, ***: P<0.01, P<0.001, experimental vs control. $: P<0.05, I10-sCD146 vs I5-13-sCD146.
C: Angiographic pictures of control (PBS) and shed sCD146/I10-sCD146/I5-13-sCD146 treated animals at D28. Pictures are representative of the 6 animals in each group. Average of the density of the vessels was expressed as right versus left leg in the different parts of the legs (calf, thigh) and in the whole leg. *, **: P<0.01, P<0.001 experimental vs PBS in calf; $: P<0.05, experimental vs PBS in thigh; #, ##: P<0.05, P<0.01, experimental vs PBS in whole leg.
In sections of muscles from ischemic mice, vascularisation was visualized with isolectin B4 (Lifetechnologies) ( 1/100). Tissue sections were examined by fluorescence microscopy (Leica sp5, Leica, Nanterre, France).
Female mice were subjected to unilateral hind limb ischemia by complete resection of the entire left femoral artery. After surgery, animals were split in four treatment groups: one control group injected in ischemic adductor muscles twice a week with PBS for 28 days; three experimental groups treated as the control groups with the three different recombinant human soluble CD146 (rh-sCD146, rh-I5-13-sCD146, rh-I10-sCD146) 2 μg.
The ratio of the ischemic versus normal hind limb blood flow was measured using a laser doppler blood flow analyzer. At different time points post-surgery (days 1, 3, 7, 14, 21 and 28), animals were subjected to 3 consecutive laser scannings over the regions of interest (leg and feet). Blood flow was expressed as the ischemic versus normal hind limb ratio.
The animals were deeply anesthetised with mix of Ketamine Xylasine (100 mg/kg and 10 mg/kg respectively) and perfused intracardially with 2 ml of lipiodole. CT 3D images were obtained with a microPET/microCT rodent model scanner (nanoPET/CTO, Mediso) with features below: 70 kVp energy, exposure time of 300 ms and 720 projections and were quantified.

[3] = test system: miR21; experiment: In vitro induction of miR21; assay type: cell-based
[4] = test system: renal and cardiac endothelial cells; experiment: In vitro endothelial-mesenchymal transition; assay type: cell-based
[5] = test system: ECFC; experiment: Permeability of ECFC monolayer to dextran-FITC; assay type: cell-based, human; settings: treatment with recombinant proteins
Protocol: D: ECFC were transfected with siRNA targeting ADAM10 or Tace and with a control siRNA (C). The permeability of the ECFC monolayer grown on semi-permeable filters was determined using dextran-FITC. Results are the mean values+/−SEM of 3 experiments.
E: ECFC were transfected with plasmid vectors encoding ADAM10 (p-ADAM10) or Tace (p-Tace) and with a control plasmid vector (C). The permeability of the ECFC monolayer grown on semi-permeable filters was determined using dextran-FITC. Results are the mean values+/−SEM of 3 experiments. *: P<0.05, **: P<0.01, ***: P<0.001, experimental vs Control.
ECFC were seeded at 60,000 cells per well on membrane inserts (porosity 1 μm) of a 24-multiwell double chamber system (Multiwell Insert System, BD Biosciences, Le Pont de Claix, France) after siRNA transfection or not. Confluent endothelial monolayers were then incubated for 24 h in EGM-2 medium in the presence or absence of the different forms of sCD146. The FITC-dextran (sigma) was added at the apical surface of the cells and was allowed to migrate for 1.5 h at 37° C. Basolateral FITC-dextran was then measured using a Cytofluor Series 4000 Fluorescence (PerSeptiveBiosystems, Framingham, MA).

Molecule: sCD146: recombinant human soluble form of CD146 corresponding to the shed sCD146, obtained from Biocytex
- vascularisation in chorio-allantoic membrane assay [1]: increased vascularisation
- blood flow (laser-Doppler) [2]: able to increase blood flow
- vascularisation of muscle (isolectin B4 labelling) [2]: vascularisation was increased
- number of vessels in the legs (angiography pictures) [2]: increase in the number of vessels
- vessel density in calf, thigh and whole leg (angiography quantification) [2]: significantly increased
- miR21 induction [3]: significantly induces in vitro miR21
- endothelial-mesenchymal transition [4]: induces in vitro an endothelial-mesenchymal transition

B1: rh-I10-sCD146: recombinant spliced variant of soluble CD146 containing intron 10, SEQ ID NO: 9 (protein, listed as Homo sapiens)
chain: MGLPRLVCAFLLAACCCCPRVAGVPGEAEQPAPELVEVEVGSTALLKCGLSQSQGNLSHVDWFSVHKEKRTLIFRVRQGQGQSEPGEYEQRLSLQDRGATLALTQVTPQDERIFLCQGKRPRSQEYRIQLRVYKAPEEPNIQVNPLGIPVNSKEPEEVATCVGRNGYPIPQVIWYKNGRPLKEEKNRVHIQSSQTVESSGLYTLQSILKAQLVKEDKDAQFYCELNYRLPSGNHMKESREVTVPVFYPTEKVWLEVEPVGMLKEGDRVEIRCLADGNPPPHFSISKQNPSTREAEEETTNDNGVLVLEPARKEHSGRYECQGLDLDTMISLLSEPQELLVNYVSDVRVSPAAPERQEGSSLTLTCEAESSQDLEFQWLREETGQVLERGPVLQLHDLKREAGGGYRCVASVPSIPGLNRTQLVNVAIFGEALPLGRDQVTPSGVVFKLFDKKPPAALGSSGAEGEAG
- transendothelial permeability [5]: nor treatment with recombinant proteins corresponding to these variants modified transendothelial permeability
- vascularisation in chorio-allantoic membrane assay [1]: increased vascularisation
- time after first injection at which a significant effect on blood flow was observed ([2]; 2 μg locally twice a week): 3 days
- blood flow (laser-Doppler) [2]: able to increase blood flow
- vascularisation of muscle (isolectin B4 labelling) [2]: vascularisation was increased
- number of vessels in the legs (angiography pictures) [2]: increase in the number of vessels
- vessel density in calf, thigh and whole leg (angiography quantification) [2]: significantly increased

B2: rh-I5-13-sCD146: recombinant spliced variant of soluble CD146 containing introns 5 and 13, SEQ ID NO: 8 (protein, listed as Homo sapiens)
chain: MVYIVRQFLLYNVSGSVYLDQLIVLLTAKFSILRIAGSRVHHSPFSGHLDGCSFLSLQHSLHTSLDMSRHENVFLGLTLSSKSAGLKGFQLAFVPGLLQGTGGYLDGPLPTPVDNPRVGLEVGLRLSLPPLPPCPGVHIQSSQTVESSGLYTLQSILKAQLVKEDKDAQFYCELNYRLPSGNHMKESREVTVPVFYPTEKVWLEVEPVGMLKEGDRVEIRCLADGNPPPHFSISKQNPSTREAEEETTNDNGVLVLEPARKEHSGRYECQGLDLDTMISLLSEPQELLVNYVSDVRVSPAAPERQEGSSLTLTCEAESSQDLEFQWLREETGQVLERGPVLQLHDLKREAGGGYRCVASVPSIPGLNRTQLVNVAIFGPPWMAFKERKVWVKENMVLNLSCEASGHPRPTISWNVNGTASEQDQDPQRVLSTLNVLVTPELLETGVECTASNDLGKNTSILFLELVNLTTLTPDSNTTTGLSTSTASPHTRANSTSTGKPGLAREQGCARASFLPCPSPESPVQKGE
- transendothelial permeability [5]: nor treatment with recombinant proteins corresponding to these variants modified transendothelial permeability
- vascularisation in chorio-allantoic membrane assay [1]: increased vascularisation
- blood flow (laser-Doppler) [2]: able to increase blood flow
- vascularisation of muscle (isolectin B4 labelling) [2]: vascularisation was increased
- number of vessels in the legs (angiography pictures) [2]: increase in the number of vessels
- vessel density in calf, thigh and whole leg (angiography quantification) [2]: significantly increased

— US12411143B2, “CD146 and uses thereof as a biomarker and as a therapeutic target in the diagnosis and treatment of fibrosis” (ASSISTANCE PUBLIQUE HÔPITAUX DE MARSEILLE, priority 2018, dated 2025)
